The values below come from article PMC11339918, “Extracellular Domain of IL-10 Receptor Chain-2 (IL-10R2) and Its Arginine-Containing Peptides Are Susceptible Substrates for Human Prostate Kallikrein-2 (KLK2)” (Biochemistry, 2024).

What is called Km is the substrate concentration at which the rate is half of its maximum.

Entries after “also recorded” stand apart in the source; their conditions may differ. Non-standard residues stand in square brackets, D forms with d. No end group written: not given here. *: point of attachment. EDDnp = O=[N+]([O-])c1ccc(NCCN*)c([N+](=O)[O-])c1; 2Abz = Nc1ccccc1C(=O)O

The first experiment relates to KLK3. In words: Hydrolysis by KLK3 of IL-10R2-derived FRET peptides containing F or Y. The class given is biochemical, human. The following applies: 2 nM KLK3, 20 mM Tris-HCl, 1 mM EDTA, 1.5 M sodium citrate, pH 7.8, 37 °C. From the text:
Obtained from a baculovirus-insect cell line system, purified, and activated as previously reported,[14] MUGB (4-methylumbelliferyl p-guanidino benzoate hydrochloride) was used for the spectrofluorimetric determination of molar concentrations of active KLK2.[15] KLK3 was obtained and assayed as previously reported.[3] […]
FRET Peptides with F FRET Peptides with Y
Abz-MNSVNFKNIL-Q-E DD np Abz-FTAQYLSYR-Q-EDD np
Abz-WESPAFAKGN-Q-EDD np Abz – AQYL SYRIF-Q-EDDnp
Abz-KGNLTFT AQY-Q-EDDnp Abz-SSLSKYGDHT-Q-EDD np
Abz-LSYRIFQDKA-Q-EDD np Abz-KIENEYET WT-Q-EDDnp
Abz-LTEADFSSLS-Q-EDD np Abz-TMKNVYNSWT-Q-ED Dnp
Abz-RVRAEFADEH-Q-EDDnp Abz-NSWTYNVQ-Q-EDDnp
Abz-HSDWVNITFAPVD-Q-EDDnp Abz-NVQYWKNG-Q-EDDnp
Abz-SLHMRFL AP K-Q-EDD np Abz-QITPQYDFEV-Q-EDD np
Abz-GTDEKFQ IT P-Q-EDD np Abz – EPWTTYAVQR-Q-EDD np
Conditions of reactions: 2 nM KLK3, 20 mM Tris -HCl, 1 mM EDTA, 1.5 M sodium citrate, pH 7.8, at 37 °C.
The sequence o f FRET peptide with F or Y in the middle of the sequence can be identiﬁed in the IL-
10R2 ectodomain sequence around F or Y, as shown b e l o w. Cysteines were substituted by Alanine (A)
1 MAWSLGSWLGGCLLVSALGMVPPPENVRMNSVNFKNILQWESPAFAKGNLTFTAQYLSYR.
61 IFQDKCMNTTLTECDFSSLSKYGDHTLRVRAEFADEHSDWVNITFCPVDDTIIGPPGMQV.
121 EVL ADSLHMR FL APKIENEY ET W TMKNVYN SWTYNVQYWK NGTDEKFQIT PQYDFEVLRN.
181 LEPW TTYCVQ VRGF LPDRNK AGEWSEPVCE QTTHDETVPS.
Take “Abz-MNSVNFKNIL-Q-E DD np [Abz-MNSVNFKNIL-Q-EDDnp, FRET peptide with F derived from IL-10R2 ectodomain]”: the “hydrolysis by KLK3 (in words)” value is listed as “resistant to hydrolysis by KLK3”.
In the case of “Abz-LSYRIFQDKA-Q-EDD np [Abz-LSYRIFQDKA-Q-EDDnp, FRET peptide with F derived from IL-10R2 ectodomain]”, the “hydrolysis by KLK3 (in words)” value is “resistant to hydrolysis by KLK3”.
Same read-out and setting: for “Abz-RVRAEFADEH-Q-EDDnp [FRET peptide with F derived from IL-10R2 ectodomain]” the value was “resistant to hydrolysis by KLK3”; for “Abz-GTDEKFQ IT P-Q-EDD np [Abz-GTDEKFQITP-Q-EDDnp, FRET peptide with F derived from IL-10R2 ectodomain]”, “resistant to hydrolysis by KLK3”; for “Abz-NVQYWKNG-Q-EDDnp [FRET peptide with Y derived from IL-10R2 ectodomain]”, “resistant to hydrolysis by KLK3”.
In the case of “Abz-KGNLTFT AQY-Q-EDDnp [Abz-KGNLTFTAQY-Q-EDDnp, FRET peptide with F derived from IL-10R2 ectodomain]”, the “hydrolysis by KLK3 (in words)” value is given as “resistant to hydrolysis by KLK3”.
On to “Abz-QITPQYDFEV-Q-EDD np [Abz-QITPQYDFEV-Q-EDDnp, FRET peptide with Y derived from IL-10R2 ectodomain]”, for which the “hydrolysis by KLK3 (in words)” value is “resistant to hydrolysis by KLK3”.
Consider “Abz – AQYL SYRIF-Q-EDDnp [Abz-AQYLSYRIF-Q-EDDnp, FRET peptide with Y derived from IL-10R2 ectodomain]”, for which the “hydrolysis by KLK3 (in words)” value is “resistant to hydrolysis by KLK3”.
For the substance “Abz-WESPAFAKGN-Q-EDD np (Abz-WESPAFAKGNQ-EDDnp) [Abz-WESPAFAKGN-Q-EDDnp, FRET peptide with F derived from IL-10R2 ectodomain]”, the “hydrolysis by KLK3 (in words)” value is “resistant to hydrolysis by KLK3”.
Same read-out and setting: for “Abz-LTEADFSSLS-Q-EDD np [Abz-LTEADFSSLS-Q-EDDnp, FRET peptide with F derived from IL-10R2 ectodomain]” the value was “resistant to hydrolysis by KLK3”.

For a further experiment, the target named is T1, Recombinant KLK2 (Homo sapiens, UniProt P20151).
T1 construct: made in house; host or cells: baculovirus-insect cell line system
T1 sequence (P20151 25-261): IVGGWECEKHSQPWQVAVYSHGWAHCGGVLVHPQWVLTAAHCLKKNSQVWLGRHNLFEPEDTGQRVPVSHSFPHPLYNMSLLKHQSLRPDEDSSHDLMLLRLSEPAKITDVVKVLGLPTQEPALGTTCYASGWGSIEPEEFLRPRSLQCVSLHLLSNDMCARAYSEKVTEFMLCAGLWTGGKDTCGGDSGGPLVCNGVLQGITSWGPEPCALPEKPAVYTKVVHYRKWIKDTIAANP
Description: Hydrolysis of FRET peptides by recombinant KLK2 (kinetic parameters). The class given is biochemical. The following applies: FRET peptides derived from the IL-10R2 ectodomain. An excerpt: Obtained from a baculovirus-insect cell line system, purified, and activated as previously reported,[14] MUGB (4-methylumbelliferyl p-guanidino benzoate hydrochloride) was used for the spectrofluorimetric determination of molar concentrations of active KLK2.[15] KLK3 was obtained and assayed as previously reported.[3]
All of the FRET peptides were obtained by solid-phase peptide synthesis. The purity of FRET peptides to 95% or higher was obtained by semipreparative HPLC on a C18 reversed-phase column and used as protease substrates, as previously reported.[5] Details about the purification and quality of the FRET peptides are provided in the Supporting Information. The enzymatic kinetic measurements were all performed with FRET peptides as previously described.[5]
Five series of FRET peptides derived from Abz-KLRSSK-Q-EDDnp were assayed with KLK2 in 20 mM Tris–HCl, pH 8.0, and 1 M sodium citrate. […] The specificity of subsites S3, S2, S1’, and S2’ was explored by the FRET peptide series Abz-XLRSSKQ-EDDnp (for S3), Abz-KXRSSKQ-EDDnp (for S2), Abz-KLRXSKQ-EDDnp (for S1’), and Abz-KLRSXKQ-EDDnp (for S2’). All of them were hydrolyzed only at R–S or R–X peptide bonds, and the kinetic parameters for their hydrolysis by KLK2 are listed in Table 1.
With “Abz-LPDRNK-Q-EDDnp [FRET peptide derived from the IL-10R2 ectodomain, ^195LPDRN^200K]”, the “hydrolysis by KLK2 (in words)” value is on record as “resistant to KLK2; also recorded: no hydrolysis”.

Staying with this experiment, now noted: Table 3, FRET peptides derived from the IL-10R2 ectodomain.
For “Abz-SYRIFQ-Q-EDDnp [FRET peptide derived from the IL-10R2 ectodomain, ^58SYRI^62F]”, the Km amounted to 0.95 µM, the kcat is reported as 7.3 s^–1 and the kcat/Km worked out at 7684 mM s–1.

The experiment is the same for the next values; noted with them: pH 8.0, 20 mM Tris–HCl, 1 M sodium citrate, 37 °C, KLK2 1.6 nM; three enzymatic reactions, standard errors 5% or less.
With “Abz-XLRSSKQ-EDDnp, X = V: FRET peptide, S3 series, X = V [Abz-XLRSSKQ-EDDnp, X = V] (Abz-VLRSSKQ-EDDnp)”, the Michaelis-Menten constant (Km) was determined as 4.7 µM, the kcat turned out to be 17.9 s^–1 and the kcat/Km was 3808 s^–1 mM^–1.
For the substance “Abz-XLRSSKQ-EDDnp, X = N: FRET peptide, S3 series, X = N (Abz-NLRSSKQ-EDDnp)”, the Km worked out at 7.8 µM, the kcat was 26.7 s^–1 and the kcat/Km is reported as 3423 s^–1 mM^–1.
With “Abz-KLRSXKQ-EDDnp, X = H: FRET peptide, S2’ series, X = H (N-terminal Abz, C-terminal EDDnp; X = H)”, the Km stood at 5.9 µM and the kcat came out at 4.4 s^–1.
For “Abz-KXRSSKQ-EDDnp, X = N: FRET peptide, S2 series, X = N (Abz-KNRSSKQ-EDDnp)”, the Michaelis constant (Km) amounted to 10.1 µM, the kcat is on record as 3.3 s^–1 and the kcat/Km came to 327 s^–1 mM^–1.
In the case of “Abz-KLRSXKQ-EDDnp, X = R: FRET peptide, S2’ series, X = R ([2Abz]KLRSRKQ-EDDnp)”, the Km was found to be 3.6 µM, the kcat came to 3.2 s^–1 and the kcat/Km is given as 888 s^–1 mM^–1.
With “Abz-KXRSSKQ-EDDnp, X = T: FRET peptide, S2 series, X = T (Abz-KTRSSKQ-EDDnp)”, the Km is 10.5 µM, the kcat is recorded as 3.6 s^–1 and the kcat/Km came to 343 s^–1 mM^–1.
With “Abz-KXRSSKQ-EDDnp, X = R: FRET peptide, S2 series, X = R (Abz-KRRSSKQ-EDDnp)”, the Michaelis-Menten constant (Km) stood at 5.2 µM, the kcat amounted to 8.7 s^–1 and the kcat/Km is 1673 s^–1 mM^–1.
Taken in the same sequence, the figures for “Abz-KXRSSKQ-EDDnp, X = Y: FRET peptide, S2 series, X = Y [Abz-KXRSSKQ-EDDnp, X = Y] (Abz-KYRSSKQ-EDDnp)” were 5.6 µM, 12.8 s^–1 and 2304 s^–1 mM^–1.
As for “Abz-KLRXSKQ-EDDnp, X = E: FRET peptide, S1’ series, X = E ([2Abz]KLRESKQ-EDDnp)”, the Michaelis constant (Km) was 6.6 µM, the kcat was determined as 10.3 s^–1 and the kcat/Km came to 1561 s^–1 mM^–1.
For “Abz-KXRSSKQ-EDDnp, X = E: FRET peptide, S2 series, X = E [Abz-KXRSSKQ-EDDnp, X = E] ([2Abz]KERSSKQ-EDDnp)” the same measures were 9.1 µM, 1.0 s^–1 and 110 s^–1 mM^–1.
Take “Abz-XLRSSKQ-EDDnp, X = F: FRET peptide, S3 series, X = F [Abz-XLRSSKQ-EDDnp, X = F] (Abz-FLRSSKQ-EDDnp)”: the Km was 6.6 µM, the kcat is given as 9.6 s^–1 and the kcat/Km is reported as 1455 s^–1 mM^–1.
Taken in the same sequence, the figures for “Abz-KLRSXKQ-EDDnp, X = I: FRET peptide, S2’ series, X = I ([2Abz]KLRSIKQ-EDDnp)” were 2.8 µM, 4.4 s^–1 and 1571 s^–1 mM^–1.
Taken in the same sequence, the figures for “Abz-KLRXSKQ-EDDnp, X = N: FRET peptide, S1’ series, X = N ([2Abz]KLRNSKQ-EDDnp)” were 8.6 µM, 14.8 s^–1 and 1733 s^–1 mM^–1.
For the substance “Abz-XLRSSKQ-EDDnp, X = H: FRET peptide, S3 series, X = H (N-terminal Abz, C-terminal EDDnp; X = H)”, the Km was 4.2 µM, the kcat is recorded as 17.2 s^–1 and the kcat/Km was determined as 4095 s^–1 mM^–1.
Taken in the same sequence, the figures for “Abz-XLRSSKQ-EDDnp, X = E: FRET peptide, S3 series, X = E (Abz-ELRSSKQ-EDDnp)” were 7.6 µM, 7.4 s^–1 and 974 s^–1 mM^–1.
Taken in the same sequence, the figures for “Abz-KXRSSKQ-EDDnp, X = S: FRET peptide, S2 series, X = S (Abz-KSRSSKQ-EDDnp)” were 9.1 µM, 1.1 s^–1 and 121 s^–1 mM^–1.
Taken in the same sequence, the figures for “Abz-KLRXSKQ-EDDnp, X = R: FRET peptide, S1’ series, X = R ([2Abz]KLRRSKQ-EDDnp)” were 5.4 µM, 8.2 s^–1 and 1519 s^–1 mM^–1.
For the substance “Abz-KLRXSKQ-EDDnp, X = G: FRET peptide, S1’ series, X = G ([2Abz]KLRGSKQ-EDDnp)”, the Michaelis constant (Km) stood at 7.3 µM and the kcat was determined as 19.9 s^–1.
